According to the domain aggregation screens of Martell et al. (2025):

Assay: soluble fraction after stress (log2 fold change); higher = more stays soluble; pooled small domains, quantitative proteomics
Settings: stress: 75 degC
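Further: 20 min heating vs room temperature control held 20 min.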

Sequence	soluble fraction (log2)
HMRPRWTEQEVERAKAIKMIYPNAYRLESSDVFVQVWSKEEILLAHVEVDMFPSLRPGQPVELDEIIG	-1.19
HMELDFLRLQIITGIHSGRLSNNEILMMYDTYSQKGGNSYVSRIVNDYVDENNIKEEGKRNARK	-1.5
HMTASVTDAMFELIDELPKLGKTSFRQLTADLVDRLQVVVTFLAVLELYKQGHVELDQSERFGDITVVWTG	0.208
HMLSYIELTVDNTSKASYIMTDKMKINNFKIIGNNTIRVYENKVSPQDISRTLSMNNVSIEALGRKS	-1.29
HMNGNLRAQVLELMGRADYEPLNKSELSRKLDLQGSDRSSLRILMDELERDHSVVRLKKGRFALKVV	-0.852
HMPGTAAQARQLKAWLKENGEKPGAALPALQKAQEIYGYVPREVQQLIADALHKPLTEIYGVSTFYSQFNL	-0.566
HMVKDYIQVTVNKEPVILKGKKDYIFIDIFNYIEFDLTIPKGSLYLLLNGKNAGYHDKLLDGDVIELGW	-2.17
HMKKPLEYIDVDKREDFPPVPNGMRYIHFYGGTKNYRAYIAPEDISRADFMEQYPEYVPEHN	0.237
HMKSDELTKRRRLQIIEAAERSFRKRGFHATTLREIAAEFGMSVGHIYNYFSGKDAILEALIHQKIDD	-1.01
HMKVSFEIEINGVTKSINSINEAKEAISELQDIMDNSTFGSEEFKNAATQIDKLQNKLVEALDK	0.93
HMTKEEIVVNWLPRYTKRNLEDFGEYILLTNFNKYVEIFAEKFNVPILGRDANMISASAEGITIIN	-0.409
HMAKSDLNYLDFKSKLEAGEIAKASVIRNEDTFKVTLQNGEVYNVTSPDYEDFRKELLEAGVDIQVSK	0.116
HMFNEFEDIPDIISAEGIDPAMREEVAANLKKYYKNPDAMLALAPLEREYYEKLVGILSEKIELKKEN	0.802
HMADLTIDGVEYTKVSPTGTLTLEKVYTKNVTPADGQYYIQTGTKTVRVATDAEVAVIKAGGF	0.153
HMYEDNERNLYSVVINFLNEHKIKISREAINLVINRSSGDKHNLKQELNKILNYSFSNKNITYETIEKLSN	-1.83
HMEHQLLHMEKTIFEEIADDYPQLNHTKIRNVLAAFLFTNDDVFKRIADLSGGERGRVSLAKLMLSDA	-0.159
HMHDWDITTAAKPEKIFELFSDIPVLETGLKHGTVTLLIDHEPYEVTTFRVDGNYTDGRHPDSVAFT	0.189
HMETYNLDVGDSAVLQYQNVSRISVGNPDVLDAIPLDKSQILLTGKATGGAALIVWDSKGMHMEKVMVHPA	-0.428
HMSEATTVNYKYAVTISDLRIRKGPGTNYGSVGYTGKGVFTIVAEKGGWGKLKSGAGWISLNSKYGHKVS	-2.03
HMIKVASVDGASDELAHEIREIMPLDFPVSYFDLDIKYLHKVLNDIPAVESAAIKVTVSGVLQIDISER	0.569
HMGEDFPYVAYATDSVRLRSKPSSSGDILAVIRQGDAVLITGSDGNYKIVEYEGRKGYVISAFLSQTP	-1.15
HMTKQNVVPLMYRMIDTLEQFIKADVPFNIETRLARVERLRETMVSSSVTTSEKFRQVLEAYTIETD	-1.05
HMQDVVERIKKYKQLFSITSEELSKRSGIPLGTLNKILSSSTKSIKTETLAAIAKGLDVSVSDLVGREK	-0.251
HMDISRMNLSQTERAVLSVLDSQPLHTEEIIASADLRAGAIHSALISLQLKGLIKQLPGNLYVK	-0.78
HMVIIPNILNKYKGLAFRQLEQVGLKIGDTIYEPNIQRDAVLRMQINGRSVQPGDQVMRFSVVDLVIG	-3.2
HMGSTYGISRVDNETSRTHGWLVTIQRRGVIYRKHFSDGVFGGKQRSFAAAKEYRDEVIAAHP	-2.68
HMKALPSAEDVALARESGRVLSTVLQTRAETQQIDFHDDKGAVRSVTLPTTALRLLLDVLTEIGQGNAV	-0.106
HMEQPPVPSVSITAALGSAVARRLAPHGFQKMPDLVDAYRAGKLAQISGIGGTTLDLIREWLTANARQQ	-0.441

Sequence	soluble fraction (log2)
HMDKESQTMFRLLTGVSGVGPKVGLAILSVLSPDRVVLAISAGDHKAFTAASGVGPKLGQRIVLELKDKVG	-3.07
HMSQNTHTIPSREDILGIFRSVNAPLDPQSLGKTLQVHADSMDVLVRRLKAMERDGQLKSDASGVFSLAD	0.185
HMSAIKSVTTQLDNTKLRTGPDVSYQYTQSYPANTKLTYINKSGTWYQVKDADGNTGYVASWVVTPSE	0.586
HMDYYDTLGVPRNASQSDIKKAYKKQSMQHHPDRTGGDDTKFKDVNEAYQVLSNSEKKQMYDQFGTA	0.07
HMPKMISPAQIKAIGAKTNNIAKASGVEQAQVYQSAVAHLGINNKSTKELTSQEASKVIEYLSTL	0.103
HMSKYLAFTVKKNDELLPFIEKALNGISHTKAKAILANGGAMVNKNTITQYNYPLTPGMTVEISRH	-0.5
HMGTRHPLPYAFAKAHTVLLEDDGDRLLLHAAENSGPSALGEILRLYDVDALERETASTLANRIAVAYAG	0.175
HMQYIINFEYSGMLLREYLRGVLGLSHGTLTALKKDPLGILLNGEHATVRAVLHAGDRLTLALE	-3.51
HMRNLFWTEAQNAQNELNAMRINALTQSIRRIEPNFRGIPSLRDPNRPIPNEEVRDYENYLNRILP	0.0375
HMNDAARQTTDILQHVRSSGSISFRDLWRLFMPFMAYRDFDAAVKSLVAAGHIATTENERKELHLIAF	-1.14
HMQHRSRALHLQEELVRRYYDQAIAPFMIFWEMKANVTLDQLKELRAVVSPSLNEHPYTKQLDEYIRLAE	-0.595
HMDFRQALNTSADSDANKVALLESIVKGKYVSSTVNLLRRVITLRRGRSIDATLAAYSHYVSIR	0.155
HMKIPGIGDVYAILARVYSGPQFTWIEAGFPEDDTKAYSYLHTAIRKGSAIAILQAMRTSGALTPTIEKE	-0.0245
HMATKVNSGVTVRDLAELLGLSSADLIKKLMTMGEMATLTQTLTDDSVKAIADEYDRKIEIVSAAQ	0.536
HMTLKTISLTEAIKNTNEGNYSKLVLDGNELTITEQGKETPSLKTYTEPGTSLKEQGFDLSKVEFEAREQS	-0.0223
HMGPDGLFAKFREPETGKDLLITQNVFVEQVLIKGVLTRTLTDAEANTYRAPFVNPEKRFPIYVWPNELP	0.014
HMDKGEQILQQALDKLPPKQRQVFEMRYFDEMPYREIATITETSEGALKASYHHAVKKIQQYISHL	-0.604
HMQTLQTTSLRVSENQLFILDQQALPQEKRWLAADNVALLVDHIHTLRVRGAPLIGLSASLLLALLAGRLT	0.0717
HMNVLLGISELSHATGVTPAQLRYWVSQGYIKNYGSNKKNKFSLETVFMVRSIKIFQNQGYTLSASAKRAA	-1.38
HMNVLGQTAIVRSLRLDATFGEVLLADGGAGLIFKARTHGDETFKKGDRVVLLEYLKDQHAYRVISETDFL	-2.45
HMRHKSNRRLTAAHQIEQQIQKLLMENTMEAKELKESLNFAAKDIDTVLSWLVDKDKVRINAINQYYWT	-0.434
HMAAGLTPKQKAFADNYIKNGGNAAEAARAAGYSLKNVGANAGKLLKNPKIAAYIAEKQAELDRRNGT	0.196
HMKYSNDFDKVSYSLGLSIASNLISSGVKTLNAEAFNDGLATVFEGRMPEINPDEANKILQNFFEGLQKE	-0.278
HMTGPSYTTRRVEAAETMMEFLRTFPQAAPFIGDLYVKAQDWPLGEEIGDRLKKMLPPQLQE	-0.698
HMDTRKEREIALYEAALRLIASGVNPAAMKVQQIADEAGIGKGTVYEYFASKEEILHGMALH	-0.218
HMSSEPYISLPRGAAHDAYPLSTKAVAAQLGMSEVWLANLRSKGKGPRYVRVGTRVFYSPEDVAQWRRAT	-1.18
HMKNKIYGTIVSSTSGEETVYKVFQVDSSKDITYLFRPDMIRLAHENNQALEFNEETGRGKRIEMSDLPK	-0.106
